Test results: paper PMC10831248, “Characterization of membrane protein interactions by peptidisc-mediated mass photometry” (iScience, 2024)

Experiments:
[1] = biological target: T1, vitamin B12 ABC transporter BtuCD, reconstituted in peptidiscs (E. coli, UniProt P06609 1-326; P06611 1-249); test: 1 mM ATP
T1 chain 1: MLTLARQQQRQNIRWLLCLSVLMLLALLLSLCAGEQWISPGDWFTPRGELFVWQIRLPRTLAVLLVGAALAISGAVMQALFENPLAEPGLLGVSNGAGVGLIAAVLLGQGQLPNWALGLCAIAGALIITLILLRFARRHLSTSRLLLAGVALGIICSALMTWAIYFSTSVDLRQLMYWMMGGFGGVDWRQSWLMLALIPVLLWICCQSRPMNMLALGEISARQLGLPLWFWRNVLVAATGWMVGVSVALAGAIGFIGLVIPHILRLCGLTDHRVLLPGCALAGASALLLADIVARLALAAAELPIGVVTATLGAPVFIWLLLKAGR
T1 chain 2: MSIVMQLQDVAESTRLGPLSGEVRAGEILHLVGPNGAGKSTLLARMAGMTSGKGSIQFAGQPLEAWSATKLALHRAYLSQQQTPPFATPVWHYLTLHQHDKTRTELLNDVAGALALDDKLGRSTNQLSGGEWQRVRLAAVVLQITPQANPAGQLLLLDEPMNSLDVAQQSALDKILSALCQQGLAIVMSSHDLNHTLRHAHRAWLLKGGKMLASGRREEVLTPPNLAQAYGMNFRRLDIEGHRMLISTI

[2] = biological target: T1, vitamin B12 ABC transporter BtuCD, …; test: without ATP
mass photometry = biological target: the molecule itself; test: mass photometry
[3] = biological target: the molecule itself; test: mass photometry; SEC fractions of His-tagged membrane proteins purified on Ni-NTA and reconstituted into peptidiscs, diluted 100-fold in PBS to ~5-20 nM; main species: subunits together in the native oligomer or complex in one disc

B1: periplasmic B12 binding protein BtuF (natural protein)
chain: APRVITLSPANTELAFAAGITPVGVSSYSDYPPQAQKIEQVSTWQGMNLERIVALKPDLVIAWRGGNAERQVDQLASLGIKVMWVDATSIEQIANALRQLAPWSPQPDKAEQAAQSLLDQYAQLKAQYADKPKKRVFLQFGINPPFTSGKESIQNQVLEVCGGENIFKDSRVPWPQVSREQVLARSPQAIVITGGPDQIPKIKQYWGEQLKIPVIPLTSDWFERASPRIILAAQQLCNALSQVD
**Q.** What does the source list for B1?
**A.** Kd [1]: 25 nM; Kd [2]: 48 nM

B2: mechanosensitive channel of large conductance (MscL) from Mycobacterium tuberculosis (natural protein)
chain: MLKGFKEFLARGNIVDLAVAVVIGTAFTALVTKFTDSIITPLINRIGVNAQSDVGILRIGIGGGQTIDLNVLLSAAINFFLIAFAVYFLVVLPYNTLRKKGEVEQPGDTQVVLLTEIRDLLAQTNGDSPGRHGGRGTPSPTDGPRASTESQ
notes: MscL, large-conductance mechanosensitive channel, Mycobacterium tuberculosis; also called M. Tb MscL; not shown: His6, C-terminal, kept
**Q.** Does B2 bind (mass photometry)?
**A.** binds

B3: trimeric drug efflux pump AcrB (natural protein, E. coli, UniProt P31224 1-1049, looked up)
chain: MPNFFIDRPIFAWVIAIIIMLAGGLAILKLPVAQYPTIAPPAVTISASYPGADAKTVQDTVTQVIEQNMNGIDNLMYMSSNSDSTGTVQITLTFESGTDADIAQVQVQNKLQLAMPLLPQEVQQQGVSVEKSSSSFLMVVGVINTDGTMTQEDISDYVAANMKDAISRTSGVGDVQLFGSQYAMRIWMNPNELNKFQLTPVDVITAIKAQNAQVAAGQLGGTPPVKGQQLNASIIAQTRLTSTEEFGKILLKVNQDGSRVLLRDVAKIELGGENYDIIAEFNGQPASGLGIKLATGANALDTAAAIRAELAKMEPFFPSGLKIVYPYDTTPFVKISIHEVVKTLVEAIILVFLVMYLFLQNFRATLIPTIAVPVVLLGTFAVLAAFGFSINTLTMFGMVLAIGLLVDDAIVVVENVERVMAEEGLPPKEATRKSMGQIQGALVGIAMVLSAVFVPMAFFGGSTGAIYRQFSITIVSAMALSVLVALILTPALCATMLKPIAKGDHGEGKKGFFGWFNRMFEKSTHHYTDSVGGILRSTGRYLVLYLIIVVGMAYLFVRLPSSFLPDEDQGVFMTMVQLPAGATQERTQKVLNEVTHYYLTKEKNNVESVFAVNGFGFAGRGQNTGIAFVSLKDWADRPGEENKVEAITMRATRAFSQIKDAMVFAFNLPAIVELGTATGFDFELIDQAGLGHEKLTQARNQLLAEAAKHPDMLTSVRPNGLEDTPQFKIDIDQEKAQALGVSINDINTTLGAAWGGSYVNDFIDRGRVKKVYVMSEAKYRMLPDDIGDWYVRAADGQMVPFSAFSSSRWEYGSPRLERYNGLPSMEILGQAAPGKSTGEAMELMEQLASKLPTGVGYDWTGMSYQERLSGNQAPSLYAISLIVVFLCLAALYESWSIPFSVMLVVPLGVIGALLAATFRGLTNDVYFQVGLLTTIGLSAKNAILIVEFAKDLMDKEGKGLIEATLDAVRMRLRPILMTSLAFILGVMPLVISTGAGSGAQNAVGTGVMGGMVTATVLAIFFVPVFFVVVRRRFSRKNEDIEHSHTVDHH
notes: AcrB, multidrug efflux pump subunit, E. coli; It is carried in a peptidisc; source: E. coli C43(DE3), purified (DDM extraction, Ni-NTA, reconstituted into peptidiscs, SEC); not shown: His6, C-terminal, kept
**Q.** Does B3 bind [3]?
**A.** binds
